Measurements as given in article PMC3076715.
Where two headings read alike, the source gives them in different places.

Legend:
Test in all cases: fluorescence polarization
M.SssI = M.SssI (UniProt P15840 1-386)
Dnmt3a-CD [1] = target: T1, Dnmt3a-CD (murine, UniProt O88508 608-908)
Dnmt3a-CD [2] = target: T1, Dnmt3a-CD; remark: listed apart in the source
Dnmt3a-CD [3] = target: T1, Dnmt3a-CD; remark: listed apart in the source

T1 sequence (O88508 608-908): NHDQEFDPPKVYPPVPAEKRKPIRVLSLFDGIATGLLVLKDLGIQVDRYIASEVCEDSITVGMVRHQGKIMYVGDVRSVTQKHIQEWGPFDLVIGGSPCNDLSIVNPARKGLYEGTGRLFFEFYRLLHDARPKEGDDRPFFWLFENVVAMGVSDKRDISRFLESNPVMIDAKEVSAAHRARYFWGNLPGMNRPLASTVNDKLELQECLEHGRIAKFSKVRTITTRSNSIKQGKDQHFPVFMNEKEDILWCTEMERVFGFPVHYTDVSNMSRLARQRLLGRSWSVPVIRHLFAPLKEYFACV
Chain of M.SssI (P15840 whole entry): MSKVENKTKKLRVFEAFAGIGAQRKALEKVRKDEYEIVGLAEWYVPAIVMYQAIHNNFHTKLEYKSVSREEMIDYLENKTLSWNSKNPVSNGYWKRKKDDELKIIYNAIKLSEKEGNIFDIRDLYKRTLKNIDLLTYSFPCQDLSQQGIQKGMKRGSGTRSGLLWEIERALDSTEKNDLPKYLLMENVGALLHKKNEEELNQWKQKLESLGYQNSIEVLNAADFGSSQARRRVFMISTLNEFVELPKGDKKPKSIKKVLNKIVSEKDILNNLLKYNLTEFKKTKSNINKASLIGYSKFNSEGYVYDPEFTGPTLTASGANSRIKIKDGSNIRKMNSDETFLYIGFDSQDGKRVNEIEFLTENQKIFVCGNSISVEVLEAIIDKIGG

B1: GCGC/CGCG (dsDNA)
DNA 1: GAGCCAAGCGCACTCTGA
DNA 2: TCAGAGTGCGCTTGGCTC
binding result (M.SssI): binds
binding result (Dnmt3a-CD [1]): binds

B2: GCB+C/CGCG (dsDNA)
DNA 1: GAGCCAAGCGCACTCTGA
DNA 2: TCAGAGTGCGCTTGGCTC
modifications: (+)-trans-anti-B[a]PDE-N2-dG at strand 1 position 10
binding result (Dnmt3a-CD [2]): binds

B3: GCGC/CGMG (dsDNA)
DNA 1: GAGCCAAGCGCACTCTGA
DNA 2: TCAGAGTGCGCTTGGCTC
modifications: 5-methylcytosine at strand 2 position 9
binding result (Dnmt3a-CD [3]): binds
